Data as given in paper PMC8171356 (Nature structural & molecular biology, 2017).
Residue numbers refer to the chain shown, from its start. Names may count otherwise. Each block holds one molecule with its values, some of them ahead of it. Ends that are not written are not given here. * marks the point of attachment. βGlcNAc = CC(=O)N[C@@H]1[C@@H](O)[C@H](O)[C@@H](CO)O[C@H]1*

T1: full-length human O-GlcNAcase (hOGA) (human, UniProt O60502 1-916)
T1 sequence (looked up): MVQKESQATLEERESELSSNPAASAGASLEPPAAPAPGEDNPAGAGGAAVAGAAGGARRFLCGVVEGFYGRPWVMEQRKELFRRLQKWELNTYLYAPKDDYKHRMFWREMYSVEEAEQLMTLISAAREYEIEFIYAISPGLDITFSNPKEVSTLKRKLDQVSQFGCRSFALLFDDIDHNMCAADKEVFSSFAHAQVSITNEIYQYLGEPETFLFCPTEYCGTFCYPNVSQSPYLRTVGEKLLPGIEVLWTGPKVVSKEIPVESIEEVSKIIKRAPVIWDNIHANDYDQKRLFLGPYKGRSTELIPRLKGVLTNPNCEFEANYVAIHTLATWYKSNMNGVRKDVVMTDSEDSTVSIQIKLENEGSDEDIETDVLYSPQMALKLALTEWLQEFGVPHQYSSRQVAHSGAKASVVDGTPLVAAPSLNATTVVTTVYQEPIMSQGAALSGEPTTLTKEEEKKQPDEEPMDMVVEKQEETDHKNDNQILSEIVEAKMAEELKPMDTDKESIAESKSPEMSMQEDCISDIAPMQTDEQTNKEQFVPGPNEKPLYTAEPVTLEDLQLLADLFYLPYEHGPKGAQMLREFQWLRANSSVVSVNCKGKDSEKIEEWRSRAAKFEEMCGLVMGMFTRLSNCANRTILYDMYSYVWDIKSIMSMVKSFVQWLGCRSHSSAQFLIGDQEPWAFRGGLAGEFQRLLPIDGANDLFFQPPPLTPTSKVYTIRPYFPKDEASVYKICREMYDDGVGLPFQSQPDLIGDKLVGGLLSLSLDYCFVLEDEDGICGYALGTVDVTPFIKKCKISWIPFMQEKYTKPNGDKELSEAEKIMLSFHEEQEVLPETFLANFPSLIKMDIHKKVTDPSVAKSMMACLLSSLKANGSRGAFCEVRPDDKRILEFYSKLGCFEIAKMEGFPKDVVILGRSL

B1: OGA_(cryst) (D175N) (domain or fragment, human)
chain: FLCGVVEGFYGRPWVMEQRKELFRRLQKWELNTYLYAPKDDYKHRMFWREMYSVEEAEQLMTLISAAREYEIEFIYAISPGLDITFSNPKEVSTLKRKLDQVSQFGCRSFALLFDNIDHNMCAADKEVFSSFAHAQVSITNEIYQYLGEPETFLFCPTEYCGTFCYPNVSQSPYLRTVGEKLLPGIEVLWTGPKVVSKEIPVESIEEVSKIIKRAPVIWDNIHANDYDQKRLFLGPYKGRSTELIPRLKGVLTNPNCEFEANYVAIHTLATWYKSNMNGVRKDVVMTDSEDSTVSIQIKLENEGSDEDIETDVLYSPQMALKLALTEWLQEFGVPHQYSSRGGGGSGGGGSGGGGSVTLEDLQLLADLFYLPYEHGPKGAQMLREFQWLRANSSVVSVNCKGKDSEKIEEWRSRAAKFEEMCGLVMGMFTRLSNCANRTILYDMYSYVWDIKSIMSMVKSFVQWLGCRSHSSAQFLIGDQEPWAFRGGLAGEFQRLLPIDGANDLFFQ
B2: OGA_(cryst) (truncated hOGA, residues 60-704 with residues 401-552 replaced by a 15-residue glycine-serine linker) (domain or fragment, human)
chain: B1 chain with N116D

What was measured:
[1] = in vivo; cited from earlier work
[2] = molecular target: the molecule itself; experiment: crystal structure
[3] = molecular target: the molecule itself; experiment: AUC
[4] = molecular target: T1, full-length human O-GlcNAcase (hOGA); experiment: glycopeptide competition assay
[5] = molecular target: B1; experiment: crystal structure

Molecule: CCN=C1N[C@@H]2[C@@H](O)[C@H](O)[C@@H](CO)O[C@@H]2S1 [thiamet-G]
- blood–brain barrier crossing [1]: can cross the blood–brain barrier

Molecule: B1
- binding result [2]: binds

Molecule: B2
- stoichiometry N [3]: 2

- binding result [4]: binds
- binding result [5]: binds
Molecule: Ac-QLWVDS(βGlcNAc)TPPPG [O-GlcNAcylated p53 peptide Ac-QLWVDS(O-GlcNAc)TPPPG]
